From patent publication US20240010720A1 (IOMX THERAPEUTICS, published 2024)
Read-outs that look alike come from different tables or passages of the source. Values belong to the binder of their own block, whether it stands above or below them.

Key:
[1] = target: T1, IgC2 domain of human IGSF11 fused to murine IgG2a Fc-region (human; mouse, UniProt Q5DX21 137-241); experiment: ELISA, IgG
T1 construct: also called IgC2-like domain mFc fusion; not shown: murine IgG2a Fc-region
T1 sequence: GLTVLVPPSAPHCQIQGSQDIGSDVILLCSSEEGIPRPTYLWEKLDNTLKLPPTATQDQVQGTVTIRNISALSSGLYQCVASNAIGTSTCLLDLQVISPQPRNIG

[2] = target: T2, IGSF11 ECD fused to murine-Fc (human; mouse, UniProt Q5DX21 23-241); experiment: ELISA, IgG
T2 construct: also called Fc-fusion IGSF11 ECD; full-length ECD of IGSF11; not shown: murine Fc
T2 sequence: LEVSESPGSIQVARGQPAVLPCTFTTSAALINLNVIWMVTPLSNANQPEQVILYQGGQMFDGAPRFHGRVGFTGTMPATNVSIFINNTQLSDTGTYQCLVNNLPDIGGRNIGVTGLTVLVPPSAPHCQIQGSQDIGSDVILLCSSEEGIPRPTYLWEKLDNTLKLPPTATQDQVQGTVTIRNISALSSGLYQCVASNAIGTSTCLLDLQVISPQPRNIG

[3] = target: T3, human IGSF11 (VSIG3) on cells (human, UniProt Q5DX21 23-431); experiment: FACS, IgG1-format antibodies; CL-11 cells (C), a line that does not express IGSF11 (specificity control), scrambled control siRNA (SC)
T3 sequence: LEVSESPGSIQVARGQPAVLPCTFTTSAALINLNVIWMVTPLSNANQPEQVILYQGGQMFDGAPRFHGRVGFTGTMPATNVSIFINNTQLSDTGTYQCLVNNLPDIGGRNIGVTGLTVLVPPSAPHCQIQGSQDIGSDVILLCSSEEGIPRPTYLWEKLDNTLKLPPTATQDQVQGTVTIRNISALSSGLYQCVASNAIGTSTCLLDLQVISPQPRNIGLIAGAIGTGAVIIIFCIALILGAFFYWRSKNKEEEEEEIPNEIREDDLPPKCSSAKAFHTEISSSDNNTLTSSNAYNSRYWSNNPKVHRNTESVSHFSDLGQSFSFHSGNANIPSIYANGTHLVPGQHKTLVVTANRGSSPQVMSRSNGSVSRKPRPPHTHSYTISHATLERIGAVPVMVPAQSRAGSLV

[4] = target: T4, His-tagged extracellular domain (ECD) of human IGSF11 (VSIG3) (human, UniProt Q5DX21 23-241); experiment: ELISA EC50 grade, IgG1
T4 construct: partly bought (SinoBiological 13094-H08H); also called IGSF11-HIS; HIS-IGSF11; not shown: HIS6 tag
T4 sequence: T2 sequence

[5] = target: T3, human IGSF11 (VSIG3) on cells; experiment: FACS, IgG1-format antibodies; DMS 273 cells (D) treated with IGSF11 siRNA (KD)
[6] = target: T5, recombinant human IGSF11 (VSIG3) extracellular domain (ECD) (human, UniProt Q5DX21 23-241, biotinylated where captured on streptavidin); experiment: SPR, IgG1
T5 construct: also called biotinylated recombinant ECD-IGSF11; IGSF11 (ECD domain)
T5 sequence: T2 sequence

[7] = target: T5, recombinant human IGSF11 (VSIG3) …; experiment: BLI, IgG1
[8] = target: T3, human IGSF11 (VSIG3) on cells; experiment: FACS, IgG1-format antibodies; DMS 273 cells (D) treated with scrambled control siRNA (SC)
[9] = target: T3, human IGSF11 (VSIG3) on cells; experiment: FACS, IgG1-format antibodies; M579-A2-luc cells (M) treated with IGSF11 siRNA (KD)
[10] = target: T3, human IGSF11 (VSIG3) on cells; experiment: FACS, IgG1-format antibodies; CL-11 cells (C), a line that does not express IGSF11 (specificity control), IGSF11 siRNA (KD)
[11] = target: T3, human IGSF11 (VSIG3) on cells; experiment: FACS, HEK cells expressing IGSF11
[12] = target: T3, human IGSF11 (VSIG3) on cells; experiment: FACS, IgG1-format antibodies; M579-A2-luc cells (M) treated with scrambled control siRNA (SC)
[13] = target: T6, IgV domain of human IGSF11 fused to murine IgG2a Fc-region (human; mouse, UniProt Q5DX21 23-143); experiment: ELISA, IgG
T6 construct: also called IgV-like domain mFc fusion; not shown: murine IgG2a Fc-region
T6 sequence: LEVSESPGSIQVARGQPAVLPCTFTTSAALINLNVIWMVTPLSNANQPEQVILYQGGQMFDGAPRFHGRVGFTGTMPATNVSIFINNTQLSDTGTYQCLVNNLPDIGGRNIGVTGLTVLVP

[14] = target: T2, IGSF11 ECD fused to murine-Fc; experiment: ELISA, IgG; remark: listed apart in the source
From the text: (§1) Expi293 cells (ThermoFisher) were transiently transfected with DNA sequences encoding the applicable IGSF11 domain-mFc fusions according to the manufacturer's instructions, and cultured under conditions suitable to the IGSF11 domain fusion. Cell supernatants were harvested 5 days post transfection and the expressed Fc-protein purified via Protein A affinity chromatography (GE Healthcare). IGSF11 domain Fc-fusion proteins were re-buffered into PBS pH7.4. […] The surface was blocked with 2% (w/v) skim milk powder in PBST. After three wash cycles with PBST, a dilution series of IgG-format ABPs was transferred to the immobilized the Fc-fusion IGSF11 ECD or the IGSF11 domains and incubated for 1 h. After removing all unbound antibodies by 3 wash cycles with PBST, bound IgG ABPs were detected with a goat anti-human IgG antibody conjugated with horseradish peroxidase. After three wash cycles with PBST the ELISA was developed with TMB substrate.

[15] = target: T4, His-tagged extracellular domain (ECD) …; experiment: blocking ELISA: IgG pre-incubated with His-tagged IGSF11 ECD, complexes added to immobilised VSIR-Fc; y axis % remaining IGSF11 binding, x axis IgG nM per legend
Method: All binding steps were for 1 hour at room temperature, and all washing steps were three times washing with PBS/Tween (0.05%).

[16] = target: T3, human IGSF11 (VSIG3) on cells; experiment: FACS, DMS 273 cells
[17] = target: T2, IGSF11 ECD fused to murine-Fc; experiment: ELISA: IgG titrated on coated murine-Fc fusion of IGSF11 ECD; x axis IgG nM, y axis absorption per legend
From the text: as §1

[18] = target: T4, His-tagged extracellular domain (ECD) …; experiment: blocking ELISA: antibody pre-incubated with His-tagged IGSF11 ECD, complexes added to immobilised VSIR-Fc; y axis % remaining IGSF11 binding to VSIR, x axis nM IgG per legend
[19] = target: T4, His-tagged extracellular domain (ECD) …; experiment: ELISA: IgG1-format antibody titrated on coated His-tagged IGSF11; x axis nM IgG, y axis absorbance per legend
[20] = target: T5, recombinant human IGSF11 (VSIG3) …; experiment: BLI, apparent affinity, IgG captured, IGSF11 ECD 100 nM
From the text: Briefly, various APBs were loaded on an optical biosensor via a commercially available Capture System (AHC sensors, ForteBio).

EC50 [1]: 1 to 20 nM
EC50 [2]: 1 to 20 nM
percentage binding (FACS heat-map) [3]: 3.6%
EC50 [4]: 0.02 to 0.05 nM
percentage binding (FACS heat-map) [5]: 3.81%
Kd [6]: > 500 nM
Kd [7]: 20 to 30 nM
percentage binding (FACS heat-map) [8]: 64.4%
percentage binding (FACS heat-map) [9]: 2.01%
percentage binding (FACS heat-map) [10]: 3.47%
EC50 [11]: > 50 nM
percentage binding (FACS heat-map) [12]: 11.6%
B1: A-026 (IgG1 format) (antibody, V domains shown)
VH: QVQLQESGPGLVKPSQTLSLTCTVSGGSISSGGYYWSWIRQHPGKGLEWIGYIYYSGSTYYNPSLKSRVTISVDTSKNQFSLKLSSVTAADTAVYYCASWSLGTSNHGWFDPWGQGTLVTVSS
VL: QSVLTQPPSASGTPGQRVTISCSGSSSNIGSNTVNWYQQLPGTAPKLLISDNNNRPSGVPDRFSGSKSGTSASLAITGLQAEDEADYYCQSYDSNLSGWVFGGGTKLTVL
notes: human IgG1 format

EC50 [13]: < 1 nM
EC50 [14]: 1 to 20 nM
B2: C-025 (IgG1 format) (antibody, V domains shown)
VH: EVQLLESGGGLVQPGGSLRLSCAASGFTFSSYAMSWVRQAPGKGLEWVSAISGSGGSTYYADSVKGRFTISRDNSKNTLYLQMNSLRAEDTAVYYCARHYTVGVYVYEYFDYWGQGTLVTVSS
VL: SYELTQPPSVSVSPGQTASITCSGDKLGDKYASWYQQKPGQSPVLVIYQDSKRPSGIPERFSGSNSGNTATLTISGTQAEDEADYYCQSYATAGFVFGGGTKLTVL
notes: wildtype human IgG1 and kappa or lambda constant regions

IC50 (read off the curve) [15]: ~4 nM
EC50 [2]: < 1 nM
percentage binding (FACS heat-map) [3]: 2.31%
EC50 [16]: > 50 nM
EC50 [4]: < 0.02 nM
percentage binding (FACS heat-map) [5]: 5.72%
EC50 (read off the curve) [17]: ~0.5 nM
IC50 (read off the curve) [18]: ~4 nM
EC50 (read off the curve) [19]: ~0.01 nM
Kd [20]: < 15 nM
Kd [6]: 250 to 500 nM
Kd [7]: 1 to 10 nM
percentage binding (FACS heat-map) [8]: 81.1%
percentage binding (FACS heat-map) [9]: 2.59%
percentage binding (FACS heat-map) [10]: 3.04%
EC50 [11]: 10 to 50 nM
percentage binding (FACS heat-map) [12]: 75.3%
B3: A-006 (IgG1 format) (antibody, V domains shown)
VH: EVQLVESGGGLIQPGGSLRLSCAASGFTVSSNYMSWVRQAPGKGLEWVSVIYSGGSTYYADSVKGRFTISRDNSKNTLYLQMNSLRAEDTAVYYCARGNPYYYGDLQVNFDYWGQGTLVTVSS
VL: QAVVTQEPSLTVSPGGTVTLTCASSTGAVTSGYYPNWFQQKPGQAPRPLIYSTSNKHSWTPARFSGSLLGGKAALTLSGVQPDDEAEYYCLLYYGGDWVFGGGTKLTVL
notes: human IgG1 format; also called A-006-like ABP
